Where two headings read alike, the source gives them in different places. Where no end group is shown, it is not given here.

Format in all cases: biochemical
Data set [1] deals with T1, FIH (Homo sapiens, UniProt Q9NWT6).
T1 construct: His6 (N, cleaved yes); made in house; host or cells: Escherichia coli BL21(DE3)
In words: FIH inhibition and metal dependence assays (2-OG decarboxylation, GST HIF-1α 775-826 as substrate). On the procedure:
(§1) FIH assays—Assays for decarboxylation of 2-OG were performed using radiolabelled 2-OG (New England Nuclear) as reported in Epstein et al supra. Incubations contained ascorbate, DTT, catalase, 2-OG, FIH, and substrate in 50 mM Tris/HCl pH7.4, and were carried out at 37° C. typically for 20 minutes. HPLC separations were achieved on a Phenomenex Jupiter C4 (10 cm×4.6 mm) column by using of a linear gradient of CH3CN in 0.1% TFA. For inhibition and metal dependence assays, GST HIF-1α 775-826 was used as substrate at 30 μM, and with iron (II) ammonium sulfate, cobalt (II) chloride, zinc (II) chloride, and N-oxaloylglycine at final concentrations of 0, 2, 10, 40, 80 and 200 μM. Assays under an atmosphere of ^18O2 were performed as reported in McNeill et al, Bioorg Med Chem Lett, 2002 12, 1547-1550.
Further characterization of FIH activity—To explore the mechanism of FIH and its relationship to the characteristics of in vivo HIF activation, in vitro analyses of FIH using the purified recombinant protein were performed.

Data set [2] has as its target T1, FIH. In words: FIH 2-OG decarboxylation (CO2 release) assay with HIF-1α polypeptide substrates. As to conditions: for % activity relative to 775-826 peptide: same conditions; for % activity relative to 775-826 peptide / CO2 released: polypeptide as FIH substrate; for CO2 released: standard assay conditions. The procedure:
as §1

In data set [3] the target is T1, FIH. In words: GST pulldown assay: capture of 35S-labelled p300 CH1 by HIF-1α CAD after exposure to FIH. As to conditions: for ability to capture CH1 after pre-incubation with FIH: GST-fused polypeptide, 35S-labelled CH1. The procedure:
N-oxaloylglycine was added to 5 mM when required. Glutathione Sepharose beads were added for 40 minutes at 25° C. and then washed with 50 mM Tris/HCl pH 7.4, 0.5% NP40, 150 mM NaCl and 1 mM DTT. […] Binding was performed for 1 hour at 25° C. and the beads were then washed in the same buffer. The bound proteins were eluted in SDS running buffer and analyzed by SDS-PAGE and autoradiography.

The mark [4] stands for this setting: in vitro kinetic assays, recombinant FIH, GST HIF-1α 775-826 at 30 μM, read-out: IC50.

T1 sequence (Q9NWT6 with tags, fused parts or gaps): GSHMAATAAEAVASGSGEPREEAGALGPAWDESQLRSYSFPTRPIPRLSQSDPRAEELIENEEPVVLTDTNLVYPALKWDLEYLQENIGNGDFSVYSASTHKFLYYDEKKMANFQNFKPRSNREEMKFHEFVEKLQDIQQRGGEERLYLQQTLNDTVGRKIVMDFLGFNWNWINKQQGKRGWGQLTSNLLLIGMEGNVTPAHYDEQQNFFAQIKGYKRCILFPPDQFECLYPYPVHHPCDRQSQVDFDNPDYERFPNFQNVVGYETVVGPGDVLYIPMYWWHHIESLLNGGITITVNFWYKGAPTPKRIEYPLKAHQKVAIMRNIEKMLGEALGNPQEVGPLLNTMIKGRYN

In the case of `[Cl-].[Cl-].[Co+2]` [Cobalt (II), cobalt (II) chloride], the IC50 in data set [1] (setting [4]) was 10 µM.

For “GST HIF-1α 775-826 N803A: GST HIF-1α 775-826 with Asn-803 mutated to alanine (PSDLACRLLGQSMDESGLPQLTSYDCEVAAPIQGSRNLLQGEELLRALDQVN; cysteine pairing not given here; also: GST fusion, not in chain)”, in data set [2], the “% activity relative to 775-826 peptide” value is below 0.01% and the CO2 released was below 0.001 nmol. For the same molecule, the “ability to capture CH1 after pre-incubation with FIH” value in data set [3] is reported as “unaffected”.

Turning to “GST HIF-1α 775-826 N803D: GST HIF-1α 775-826 with Asn-803 mutated to aspartate (PSDLACRLLGQSMDESGLPQLTSYDCEVDAPIQGSRNLLQGEELLRALDQVN; cysteine pairing not given here; also: GST fusion, not in chain; UniProt Q16665 775-826, looked up, variant N803D)”, the “2-OG turnover relative to the analogous Asn-803 substrate” value in data set [2] (GST HIF-1α 775-826 mutant) is reported as at most 7%. Besides, in data set [2], the “% activity relative to 775-826 peptide” value stood at 7% and the CO2 released was found to be 0.22 nmol.

`O=S(=O)([O-])[O-].O=S(=O)([O-])[O-].[Fe+2].[NH4+].[NH4+]` [iron (II), iron (II) ammonium sulfate]: in data set [1] (added to purified FIH/HIF-1α CAD assay), the “effect of exogenous metal on FIH activity” value is “no further increase in activity”.

On to “GST HIF-1α 775-826 N803Q: GST HIF-1α 775-826 with Asn-803 mutated to glutamine (PSDLACRLLGQSMDESGLPQLTSYDCEVQAPIQGSRNLLQGEELLRALDQVN; cysteine pairing not given here; also: GST fusion, not in chain; UniProt Q16665 775-826, looked up, variant N803Q)”, for which, in data set [2], the “% activity relative to 775-826 peptide” value was below 0.01% and the CO2 released is reported as below 0.001 nmol.

On to “GST HIF-1α 775-826 N803E: GST HIF-1α 775-826 with Asn-803 mutated to glutamate (PSDLACRLLGQSMDESGLPQLTSYDCEVEAPIQGSRNLLQGEELLRALDQVN; cysteine pairing not given here; also: GST fusion, not in chain; UniProt Q16665 775-826, looked up, variant N803E)”, for which, in data set [2], the “% activity relative to 775-826 peptide” value is below 0.01% and the CO2 released is below 0.001 nmol.

Turning to “2-oxoglutarate [2-OG, reference compound]”, the Km in data set [2] (preliminary kinetic parameter, with free HIF-1α 775-826 peptide, 2-OG turnover assay, read-out: Km(2-OG)) was 10 µM.

For “HIF-1α 775-826: free polypeptide encompassing the human HIF-1α CAD (residues 775-826), GST tag removed”, the maximum rate (Vmax) in data set [2] (preliminary kinetic parameter, 2-OG turnover assay) came out at 0.3 µmol/min/mg. Besides, the Michaelis constant (Km) in data set [2] (preliminary kinetic parameter, 2-OG turnover assay, read-out: Km(peptide)) was 10 µM. In addition, in data set [2], the “% activity relative to 775-826 peptide” value is 100% and the CO2 released came out at 2.8 nmol.

With `O=C(O)CNC(=O)C(=O)O` [N-oxaloylglycine, reference compound], half-maximal inhibition in data set [1] (IC50) required 25 µM. Further, the “inhibition of FIH effect on CH1 capture by HIF-1α CAD” value in data set [3] (N-oxaloylglycine 5 mM in FIH/HIF-1α CAD reaction step) is recorded as “inhibited the effect of FIH”.

For “GST HIF-1α 577-826: GST tagged fusion of human HIF-1α residues 577-826”, in data set [2], the “% activity relative to 775-826 peptide” value was found to be 67% and the CO2 released was determined as 0.81 nmol.

Regarding “GST HIF-1α 775-826: N-terminal glutathione S-transferase tagged fusion of human HIF-1α residues 775-826 (CAD)”, in data set [2], the “% activity relative to 775-826 peptide” value was found to be 96% and the CO2 released turned out to be 2.7 nmol. In data set [3], the “ability to capture CH1 after pre-incubation with FIH” value is given as “strikingly reduced”.

As to `[Cl-].[Cl-].[Zn+2]` [zinc (II), zinc (II) chloride], the IC50 in data set [1] (setting [4]) was 10 µM.

B1: His6-HIF-1α 530-698: His6-tagged section of HIF-1α, residues 530-698 (protein)
chain: EFKLELVEKLFAEDTEAKNPFSTQDTDLDLEMLAPYIPMDDDFQLRSFDQLSPLESSSASPESASPQSTVTVFQQTQIQEPTANATTTTATTDELKTVTKDRMEDIKILIASPSPTHIHKETTSATSSPYRDTQSRTASPNRAGKGVIEQTEKSHPRSPNVLSVALSQR
modifications: left off: small tags and cut ends
As for B1, in data set [2], the “% activity relative to 775-826 peptide” value is listed as below 0.01% and the CO2 released is reported as below 0.001 nmol.

B2: His6-HIF-1α 344-503: His6-tagged section of HIF-1α, residues 344-503 (protein)
chain: GIIQHDLIFSLQQTECVLKPVESSDMKMTQLFTKVESEDTSSLFDKLKKEPDALTLLAPAAGDTIISLDFGSNDTETDDQQLEEVPLYNDVMLPSPNEKLQNINLAMSPLPTAETPKPLRSSADPALNQEVALKLEPNPESLELSFTMPQIQDQTPSPSD
modifications: left off: small tags and cut ends
In the case of B2, in data set [2], the “% activity relative to 775-826 peptide” value is recorded as below 0.01% and the CO2 released is below 0.001 nmol.

B3: GST HIF-1α 530-652: GST tagged fusion of human HIF-1α residues 530-652 (protein)
chain: EFKLELVEKLFAEDTEAKNPFSTQDTDLDLEMLAPYIPMDDDFQLRSFDQLSPLESSSASPESASPQSTVTVFQQTQIQEPTANATTTTATTDELKTVTKDRMEDIKILIASPSPTHIHKETT
modifications: left off: a dimerising Fc or GST
Take B3: in data set [2], the “% activity relative to 775-826 peptide” value is given as 1.8% and the CO2 released is 0.05 nmol.

(Values after patent US20090286858A1, “ASSAYS FOR MODULATORS OF ASPARAGINYL HYDROXYLASE” (ISIS INNOVATION LIMITED, priority 2002, published 2009).)
